US20250034266A1 (ZAI LAB SHANGHAI, published 2025)
Where two headings read alike, the source gives them in different places.

Tests used:
human CCR8 [1] = target: T1, human CCR8 (human, UniProt P51685 1-355); assay: FACS, competition with AF647-human CCL1 on CHO-K1-human CCR8 cells
T1 construct: whole, on cells; also called hCCR8

human CCR8 [2] = target: T1, human CCR8; assay: FACS on HEK293-human CCR8 cells
cynomolgus CCR8 [3] = target: T2, cynomolgus CCR8 (cynomolgus, UniProt G7NYJ2 1-355); assay: FACS on ExpiCHO-S-cynomolgus CCR8 cells
T2 construct: whole, on cells
T2 sequence (G7NYJ2 entry or part of it): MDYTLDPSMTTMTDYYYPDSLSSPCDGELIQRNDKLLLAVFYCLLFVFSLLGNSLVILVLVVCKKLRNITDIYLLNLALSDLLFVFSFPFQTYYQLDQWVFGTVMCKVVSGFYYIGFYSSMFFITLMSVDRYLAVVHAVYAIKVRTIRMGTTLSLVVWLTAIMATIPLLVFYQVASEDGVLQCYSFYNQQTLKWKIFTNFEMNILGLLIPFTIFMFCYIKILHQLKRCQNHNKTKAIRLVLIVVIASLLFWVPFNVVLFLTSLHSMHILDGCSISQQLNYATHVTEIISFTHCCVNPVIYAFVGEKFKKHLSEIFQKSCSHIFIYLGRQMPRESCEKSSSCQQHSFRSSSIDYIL

cynomolgus CCR8 [4] = target: T2, cynomolgus CCR8; assay: FACS on HEK293-cynomolgus CCR8 cells
Experimental: (§1) A total of 5×10⁴ cells for each well were seeded in 96-well plates and washed with FACS buffer (DPBD containing 1.5% FBS) for once. Antibodies were prepared with 3-fold serial dilution ranging from 100 nM to 0.0017 nM in FACS buffer. Cells were incubated with 50 μL of diluted antibodies at 4° C. for 1 hour. […] After primary antibody incubation, cells were washed for 3 times by FACS buffer. Then, cells were stained by Alexa Flu647 labeled anti-human IgG secondary antibody (Jackson ImmunoResearch, #109606170) or Alexa Flu647 labeled anti-mouse IgG secondary antibody (Jackson ImmunoResearch, #115605072) at 1:600 dilution in FACS buffer for 0.5 hour at 4° C. After washed for 3 times, Flow cytometry was performed to measure the binding.

human CCR8 [5] = target: T1, human CCR8; assay: FACS, competition with AF647-human CCL1 on CHO-K1-human CCR8 cells; remark: listed apart in the source
human CCR8 [6] = target: T1, human CCR8; assay: FACS on HEK293-human CCR8 cells; remark: listed apart in the source
Experimental: as §1

T1 sequence (P51685 whole entry): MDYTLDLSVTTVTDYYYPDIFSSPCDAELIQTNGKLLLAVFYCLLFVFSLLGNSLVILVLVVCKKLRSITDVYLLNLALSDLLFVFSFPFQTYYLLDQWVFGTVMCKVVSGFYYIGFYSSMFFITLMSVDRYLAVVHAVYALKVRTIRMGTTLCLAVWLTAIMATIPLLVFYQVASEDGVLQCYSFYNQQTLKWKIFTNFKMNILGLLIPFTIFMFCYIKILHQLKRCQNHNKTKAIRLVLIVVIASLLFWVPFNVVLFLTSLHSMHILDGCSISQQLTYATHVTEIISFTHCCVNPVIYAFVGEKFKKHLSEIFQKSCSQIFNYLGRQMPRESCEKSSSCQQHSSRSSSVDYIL

Binder | IC50 (human CCR8 [1]) | Max Inhibition (%) (human CCR8 [1]) | EC50 (human CCR8 [2]) | Max MFI (human CCR8 [2]) | Max MFI (cynomolgus CCR8 [3]) | EC50 (cynomolgus CCR8 [3]) | EC50 (cynomolgus CCR8 [4]) | Max MFI (cynomolgus CCR8 [4]) | IC50 (human CCR8 [5]) | Max Inhibition (%) (human CCR8 [5]) | EC50 (human CCR8 [6]) | Max MFI (human CCR8 [6])
Hu348-1 (antibody, V domains shown, humanized IgG) VH: EVQLVESGGGLVQPGGSLKLSCATSGFSFSNYRMHWLRQASGKGLEWVGVITVKSDNYGANYAASVKGRFTISRDDSKSSVYLQMNSLKTEDTAVYYCSSLGRVAYWGQGTLVTVSS VL: DIQMTQSPSSVSASVGDRVTITCKASQNVDTNVVWYQQKPGQSPKALIYSASSRYSGVPDRFSGSGSGTDFTLTISSLQPEDFATYYCQQHNSFPLTFGQGTKLEIK | 0.23 nM | 94.1% | 0.122 nM | 5110 MFI | 336 MFI | – | – | – | – | – | – | –
Hu348-2 (antibody, V domains shown, humanized IgG) VH: EVQLVESGGGLVQPGGSLKLSCATSGFSFSNYRMHWLRQASGKGLEWVGVITVKSDNYGANYAASVKGRFTISRDDSKSSVYLQMNSLKTEDTAVYYCSSLGRVAYWGQGTLVTVSS VL: DIQMTQSPSSVSASVGDRVTITCKASQNVDTNVVWYQQKPGKAPKALIYSASSRYSGVPDRFSGSGSGTDFTLTISSLQPEDFATYYCQQHNSFPLTFGQGTKLEIK | 0.216 nM | 92.4% | 0.119 nM | 4740 MFI | 296 MFI | – | – | – | – | – | – | –
Hu348-3 (antibody, V domains shown, humanized IgG) VH: EVQLVESGGGLVQPGGSLKLSCATSGFSFSNYRMHWLRQASGKGLEWVGVITVKSDNYGANYAASVKGRFTISRDDSKSSVYLQMNSLKTEDTAVYYCSSLGRVAYWGQGTLVTVSS VL: DIQMTQSPSSVSASVGDRVTITCKASQNVDTNVVWYQQKPGQSPKLLIYSASSRYSGVPDRFSGSGSGTDFTLTISSLQPEDFATYYCQQHNSFPLTFGQGTKLEIK | 0.362 nM | 83.1% | 0.108 nM | 4090 MFI | 350 MFI | – | – | – | – | – | – | –
Hu348-6 (antibody, V domains shown, humanized IgG) VH: EVQLVESGGGLVQPGGSLKLSCATSGFSFSNYRMHWVRQASGKGLEWVGVITVKSDNYGANYAASVKGRFTISRDDSKSSVYLQMNSLKTEDTAVYYCSSLGRVAYWGQGTLVTVSS VL: DIQMTQSPSSVSASVGDRVTITCKASQNVDTNVVWYQQKPGQSPKALIYSASSRYSGVPDRFSGSGSGTDFTLTISSLQPEDFATYYCQQHNSFPLTFGQGTKLEIK | 1.84 nM | 78.3% | 0.978 nM | 1980 MFI | 82 MFI | 31.1 nM | – | – | – | – | – | –
Hu348-7 (antibody, V domains shown, humanized IgG) VH: EVQLVESGGGLVQPGGSLKLSCATSGFSFSNYRMHWLRQASGKGLEWVGRITVKSDNYGTAYAASVKGRFTISRDDSKSSVYLQMNSLKTEDTAVYYCSSLGRVAYWGQGTLVTVSS VL: DIQMTQSPSSVSASVGDRVTITCKASQNVDTNVVWYQQKPGQSPKALIYSASSRYSGVPDRFSGSGSGTDFTLTISSLQPEDFATYYCQQHNSFPLTFGQGTKLEIK | – | 25.6% | – | 756 MFI | 174 MFI | – | – | – | – | – | – | –
Hu348-5 (antibody, V domains shown, humanized IgG) VH: EVQLVESGGGLVQPGGSLKLSCAASGFSFSNYAMHWLRQASGKGLEWVGVITVKSDNYGANYAASVKGRFTISRDDSKSSVYLQMNSLKTEDTAVYYCSSLGRVAYWGQGTLVTVSS VL: DIQMTQSPSSVSASVGDRVTITCKASQNVDTNVVWYQQKPGQSPKALIYSASSRYSGVPDRFSGSGSGTDFTLTISSLQPEDFATYYCQQHNSFPLTFGQGTKLEIK | – | 1.39% | – | 163 MFI | 6 MFI | – | – | – | – | – | – | –
Hu149-3 (antibody, V domains shown, humanized IgG) VH: EVQLVESGGGLVQPGGSLKLSCAASGFTFNTYAMNWVRQASGKGLEWVGRIRSKSNFYATAYAASVKGRFTISRDDSKNTAYLQMNSLKTEDTAVYYCVRGRDYGSSYAMDYWGQGTLVTVSS VL: DIVMTQSPLSLPVTPGEPASISCRSSKSLLHSNANTYLYWFLQKPGQSPQLLIYRMSNLASGVPDRFSGSGSGTDFTLKISRVEAEDVGVYYCMQHLEYPLTFGGGTKVELK | – | – | – | – | – | – | 0.205 nM | 19900 MFI | 0.478 nM | 99.2% | 0.193 nM | 7000 MFI
Hu149-8 (antibody, V domains shown, humanized IgG) VH: EVQLVESGGGLVQPGGSLKLSCAASGFTFNTYAMNWVRQASGKGLEWVGRIRSKSNFYATYYAASVKGRFTISRDDSKNTAYLQMNSLKTEDTAVYYCTRGRDYGSSYAMDYWGQGTLVTVSS VL: DIVMTQSPLSLPVTPGEPASISCRSSKSLLHSNANTYLYWYLQKPGQSPQLLIYRMSNLASGVPDRFSGSGSGTDFTLKISRVEAEDVGVYYCMQHLEYPLTFGGGTKVELK | – | – | – | – | – | – | – | 2420 MFI | 1.24 nM | 86.5% | 0.24 nM | 3830 MFI
Hu149-6 (antibody, V domains shown, humanized IgG) VH: EVQLVESGGGLVQPGGSLKLSCAASGFTFNTYAMHWVRQASGKGLEWVGRIRSKSNFYATYYAASVKGRFTISRDDSKNTAYLQMNSLKTEDTAVYYCVRGRDYGSSYAMDYWGQGTLVTVSS VL: DIVMTQSPLSLPVTPGEPASISCRSSKSLLHSNANTYLYWYLQKPGQSPQLLIYRMSNLASGVPDRFSGSGSGTDFTLKISRVEAEDVGVYYCMQHLEYPLTFGGGTKVELK | – | – | – | – | – | – | – | 443 MFI | 2.37 nM | 1% | – | 138 MFI
Hu149-7 (antibody, V domains shown, humanized IgG) VH: EVQLVESGGGLVQPGGSLKLSCAASGFTFNTYAMNWVRQASGKGLEWVGRIRSKSNFYATAYAASVKGRFTISRDDSKNTAYLQMNSLKTEDTAVYYCVRGRDYGSSYAMDYWGQGTLVTVSS VL: DIVMTQSPLSLPVTPGEPASISCRSSKSLLHSNANTYLYWYLQKPGQSPQLLIYRMSNLASGVPDRFSGSGSGTDFTLKISRVEAEDVGVYYCMQHLEYPLTFGGGTKVELK | – | – | – | – | – | – | – | 488 MFI | 37.8 nM | 59% | 6.42 nM | 3110 MFI
Hu149-5 (antibody, V domains shown, humanized IgG) VH: EVQLVESGGGLVQPGGSLKLSCAASGFTFNTYAMNWVRQASGKGLEWVGRIRSKSNFYATYYAASVKGRFTISRDDSKNTAYLQMNSLKTEDTAVYYCVRGRDYGSSYAMDYWGQGTLVTVSS VL: DIVMTQSPLSLPVTPGEPASISCRSSKSLLHSNANTYLYWYLQKPGQSPQLLIYRMSNLASGVPDRFSGSGSGTDFTLKISRVEAEDVGVYYCMQHLEYPLTFGGGTKVELK | – | – | – | – | – | – | – | 414 MFI | 49.6 nM | 57.3% | 15 nM | 2470 MFI
